# T1: hydroxylated His-AtHPPD (under oxidative stress, H2O2) (Arabidopsis thaliana), P93836
# T1 chain: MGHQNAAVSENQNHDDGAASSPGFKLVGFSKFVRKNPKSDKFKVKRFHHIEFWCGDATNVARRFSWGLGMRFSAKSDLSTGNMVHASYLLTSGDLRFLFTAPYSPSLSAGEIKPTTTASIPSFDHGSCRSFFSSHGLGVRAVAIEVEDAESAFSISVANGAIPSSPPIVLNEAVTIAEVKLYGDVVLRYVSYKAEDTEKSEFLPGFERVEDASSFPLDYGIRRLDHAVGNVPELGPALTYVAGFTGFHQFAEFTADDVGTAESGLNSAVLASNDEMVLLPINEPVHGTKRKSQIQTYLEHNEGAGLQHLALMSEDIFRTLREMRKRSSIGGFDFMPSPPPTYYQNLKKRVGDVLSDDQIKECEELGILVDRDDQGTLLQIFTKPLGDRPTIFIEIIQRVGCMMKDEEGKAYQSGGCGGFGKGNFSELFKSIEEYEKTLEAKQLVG
# Biological target: T1, hydroxylated His-AtHPPD (under …)
# Assay: MST; as the MST of untreated His-AtHPPD, but AtHPPD under oxidative stress (H2O2, concentration not stated); GST-PUB11-ARM serially diluted; 25°C; 20 mM HEPES pH 8.0, 100 mM NaCl
binder,measurement,value
"GST-PUB11-ARM (domain or fragment, modifications not checked) QPAGYINGRTKNSGDMSVIRALVQRLSSRSTEDRRNAVSEIRSLSKRSTDNRILIAEAGAIPVLVNLLTSEDVATQENAITCVLNLSIYENNKELIMFAGAVTSIVQVLRAGTMEARENAAATLFSLSLADENKIIIGGSGAIPALVDLLENGTPRGKKDAATALFNLCIYHGNKGRAVRAGIVTALVKMLSDSTRHRMVDEALTILSVLANNQDAKSAIVKANTLPALIGILQTDQTRNRENAAAILLSLCKRDTEKLITIGRLGAVVPLMDLSKNGTERGKRKAISLLELLRKACQ",Kd,2930 nM

# Source: paper PMC12785156
